Reference: paper PMC2729490 (Biochemistry, 2009)

Legend:
[1] = biological target: calmodulin (human, Ca2+-loaded) (human) (UniProt P0DP23); test: NMR titration
[2] = biological target: HVR peptide (22 amino acid synthetic peptide representing the hypervariable region of K-Ras4B) (human); test: ITC
CaM = conditions: helix 5 independently expressed; ref [22]; cited from earlier work

HVR peptide (22 amino acid synthetic peptide representing the hypervariable region of K-Ras4B)
Kd [1]: 17.5 µM

calmodulin (human, Ca2+-loaded) (from UniProt P0DP23 1-149) (natural protein)
Kd [2]: 11.2 µM
dH [2]: 0.65 kcal/mol
stoichiometry N [2]: 1

α–helix 5 peptide (amino acids 151–166): hydrophobic α–helix 5 peptide (amino acids 151–166) of K-Ras4B, independently expressed, literature (RVEDAFYTLVREIRQY; isoform 2B; UniProt P01116 151-166, looked up, fragment)
CaM binding (CaM): apparent binding to CaM
